The record followed here is the Immune Epitope Database (IEDB).

A value given as a limit tells only on which side of the number the result lay.

The target in the first test is HLA-B*15:01. As to the kind of experiment: IEDB peptide-MHC binding, purified MHC/direct/fluorescence; filed as Kd, often an IC50 or EC50 that approximates it; ≥ and ≤ were set here for values at or beyond the usual limits of such assays. Conditions: source organism: Haemophilus influenzae.
The Kd is the equilibrium constant for the complex coming apart. On to SQKHFDTWW, for which the Kd was 473 nM.

The same test, now with this note: source organism: Mammarenavirus juninense.
As for KLIADSIDF, the dissociation constant Kd is 67.5 nM.

The next test concerns the target HLA-B*58:01. The description is as above. Particulars: source organism: Haemophilus influenzae.
With SQKHFDTWW, the Kd came to 3040 nM.

The test is the same for the next values; noted with them: source organism: Mammarenavirus juninense.
With KLIADSIDF, the Kd stood at 1620 nM.

The target of a further test is HLA-A*03:01. The description is as above. Conditions: source organism: Vibrio cholerae.
The sequence LSARHASGK registered a dissociation constant (Kd) of 127 nM.

The next test has as its target HLA-A*02:01. Put plainly: IEDB peptide-MHC binding, purified MHC/competitive/fluorescence; filed as Kd, often an IC50 or EC50 that approximates it; ≥ and ≤ were set here for values at or beyond the usual limits of such assays. Conditions: source organism: Bacillus anthracis str. A0488.
With FMSMVSHEL, the dissociation constant Kd turned out to be 0.5 nM.

The test is the same for the next values; noted with them: source organism: Trichodesmium erythraeum IMS101.
DIKPDNILL displayed a Kd of no less than 20000 nM.

The test is the same for the next values; noted with them: source organism: Vaccinia virus WR.
YLYQPCDLL displayed an equilibrium dissociation constant (Kd) of 0.2 nM.

Staying with this test, now noted: source organism: Variola virus.
KLGFDEIKGL: the dissociation constant Kd was 134 nM.

In a further test the target is HLA-A*26:01. Described as above. Particulars: source organism: Influenza A virus (A/Sichuan/2/1987(H3N2)).
ITYGACPRY yielded an equilibrium dissociation constant (Kd) of 34.3 nM.

Still in this test, the particulars now being: source organism: Yersinia pestis Nepal516.
As to TTRGETLFY, the dissociation constant (Kd) is 34.1 nM.

The next test deals with HLA-A*02:01. As to the kind of experiment: IEDB peptide-MHC binding, purified MHC/competitive/fluorescence; ≥ and ≤ were set here for values at or beyond the usual limits of such assays. Conditions: source organism: Mycobacterium tuberculosis.
In general, IC50 refers to the midpoint of a concentration-inhibition curve. The low end stands for inhibition by little substance, the high end for a need for much substance. Take KLAGGVAVI: the IC50 is 120 nM.

For the sequence KLQERLAKL, the IC50 came to 100 nM.

The same test, now with this note: source organism: Sudan ebolavirus.
The sequence WIPYFGPGA had an IC50 of 1460 nM.

Still in this test, the particulars now being: source organism: Vaccinia virus.
RNLNVTTQS returned a half-maximal inhibitory concentration (IC50) of no less than 558000 nM.

RSLETDLRS came in with an IC50 of no less than 158000 nM.

The same test, now with this note: source organism: Vaccinia virus Copenhagen.
As for AKAIITPIV, the IC50 is no less than 147000 nM.

Still in this test, the particulars now being: source organism: Variola virus.
YGTLIIDEV: the IC50 came to 3320 nM.

The same test, now with this note: source organism: Zaire ebolavirus.
In the case of ASDTPSATT, the IC50 was no less than 614000 nM.

Sequence LTTLATIST registered an IC50 of 7630 nM.

Consider MKDEPVVFS, for which the half-maximal inhibitory concentration (IC50) was no less than 420000 nM.

In turn, NETEYLFEV came in with an IC50 of 43600 nM.

Turning to NNLEEICQL, the IC50 is no less than 225000 nM.

In turn, RLEELLPAV showed a half-maximal inhibitory concentration (IC50) of 1850 nM.

SAIALGVAT showed an IC50 of no less than 242000 nM.

The target of a further test is HLA-A*02:03. Put plainly: IEDB peptide-MHC binding, purified MHC/competitive/radioactivity; filed as Kd, often an IC50 or EC50 that approximates it; ≥ and ≤ were set here for values at or beyond the usual limits of such assays. Particulars: source organism: Lymphocytic choriomeningitis virus (strain Armstrong).
Turning to MSCDDVVFGI, the Kd is 12100 nM.

The same test, now with this note: source organism: Mammarenavirus machupoense.
In the case of SSWAVHWFS, the dissociation constant Kd is no less than 78100 nM.

The same test, now with this note: source organism: SARS coronavirus Tor2.
For FLAHLQWFA, the dissociation constant Kd is 0.207 nM.

Take FVVFLLVTL: the Kd came to 1640 nM.

Consider LLLEWLAEV, for which the Kd amounted to 0.627 nM.

As for LMSFTILCL, the equilibrium dissociation constant (Kd) was 16.3 nM.

On to MLFTKFFYL, for which the equilibrium dissociation constant (Kd) was determined as 17.2 nM.

As to NLAPHLLLIV, the dissociation constant Kd stood at 1.07 nM.

For TQWSLFFFV, the Kd came to 540 nM.

Still in this test, the particulars now being: source organism: Vaccinia virus WR.
As for DTDIVNNFI, the Kd was 19400 nM.

Take ETKRNIARHL: the Kd was 12400 nM.

Consider FTILEYLYI, for which the dissociation constant (Kd) came out at 169 nM.

For the sequence FTNSQIFNI, the dissociation constant Kd was 7.11 nM.

For the sequence FVTDYVHEGV, the equilibrium dissociation constant (Kd) is 1.68 nM.

For the sequence GLCNYGGIL, the dissociation constant Kd was found to be 125 nM.

Consider GLRQQLEDI, for which the dissociation constant Kd stood at 4.72 nM.

GMQFDKVYL: the Kd worked out at 277 nM.

As to HAKYMVTDKT, the dissociation constant Kd is no less than 35000 nM.

For the sequence HLRASTTENA, the Kd was 37.9 nM.

On to IAGLKIEEI, for which the Kd was found to be 6090 nM.

Take ILPDKIDGL: the Kd turned out to be 3.45 nM.

IVPDADPPI: the Kd was 10700 nM.

Consider IVSKCIVQSV, for which the dissociation constant (Kd) is 30.8 nM.

KISVEKIKQT: the Kd is 8960 nM.

Consider LIFNVKSKLL, for which the Kd was 6690 nM.

For LITLILSNKL, the dissociation constant (Kd) was 293 nM.

As for LLPLTSLVIT, the dissociation constant Kd is 1320 nM.

Turning to LMIGNYFSGV, the dissociation constant Kd worked out at 0.0932 nM.

LTGNNTITT: the Kd was 5620 nM.

Turning to LTSVDIETAI, the dissociation constant Kd is 2150 nM.

With MAFILGIII, the Kd came to 9760 nM.

For the sequence NTCKPTILAT, the dissociation constant Kd turned out to be 248 nM.

In the case of NTIAVITETI, the dissociation constant Kd was found to be 56.3 nM.

With NTLISSDGA, the dissociation constant Kd is 3570 nM.

RTWKVLSIMA: the Kd stood at 6050 nM.

With SIMSMMNIT, the Kd is 681 nM.

For the sequence SLVITYCLVT, the dissociation constant Kd turned out to be 566 nM.

Consider STAEQLSKYV, for which the Kd was found to be 1870 nM.

STDQDTMLFA: the Kd amounted to 4700 nM.

For the sequence SVNASKTINA, the Kd came to 731 nM.

As to TAGNKVDVDI, the Kd was found to be 3500 nM.

In the case of TVLTSVDIET, the equilibrium dissociation constant (Kd) was determined as 915 nM.

Consider VISTIANSNI, for which the Kd came out at 845 nM.

Take VIVENDNVI: the Kd is 19500 nM.

Turning to YALEPRKEI, the dissociation constant Kd stood at 7070 nM.

For the sequence YIEDELRRAA, the dissociation constant Kd came out at 166 nM.

Turning to YISRDELWA, the equilibrium dissociation constant (Kd) was 242 nM.

Another test deals with HLA-B*51:01. Described as above. Particulars: source organism: Dengue virus 1 Brazil/97-11/1997.
For the sequence LPLPWTSGAS, the Kd was 10600 nM.

The same test, now with this note: source organism: Dengue virus 2 Jamaica/1409/1983.
In the case of FPVSIPITA, the equilibrium dissociation constant (Kd) was 3720 nM.

Regarding LPLPWLPGAD, the Kd was no less than 32600 nM.

Take NPTVDGITV: the dissociation constant (Kd) came out at 6300 nM.

Consider VAVSFVTLI, for which the Kd came to 431 nM.

The same test, now with this note: source organism: Dengue virus 3 Martinique/1243/1999.
As for LAFSIMKSV, the Kd was determined as 155 nM.

As to VPPLPLFIF, the Kd worked out at 3580 nM.

Staying with this test, now noted: source organism: Dengue virus 4 Philippines/H241/1956.
Turning to GPLRMVLAFI, the equilibrium dissociation constant (Kd) was no less than 35500 nM.

In the case of TPKGAVMDI, the Kd stood at 4220 nM.

Another test concerns the target HLA-B*35:01. Described as above. Particulars: source organism: Dengue virus 1 Brazil/97-11/1997.
On to LPLPWTSGAS, for which the dissociation constant (Kd) was determined as 938 nM.

Take TPQDNQLAY: the Kd stood at 10.3 nM.

Still in this test, the particulars now being: source organism: Dengue virus 2 Jamaica/1409/1983.
As to FPVSIPITA, the Kd was found to be 1.7 nM.

Turning to LPLPWLPGAD, the equilibrium dissociation constant (Kd) was 2490 nM.

Still in this test, the particulars now being: source organism: Dengue virus 4 Philippines/H241/1956.
With VPLLAMGCY, the Kd came to 112 nM.

The next test has as its target HLA-A*02:02. Described as above. Conditions: source organism: Lymphocytic choriomeningitis virus (strain Armstrong).
Take MSCDDVVFGI: the Kd worked out at 1040 nM.

The test is the same for the next values; noted with them: source organism: Mammarenavirus machupoense.
Consider SSWAVHWFS, for which the Kd came to 4640 nM.

Staying with this test, now noted: source organism: SARS coronavirus Tor2.
Regarding FLAHLQWFA, the equilibrium dissociation constant (Kd) was found to be 0.104 nM.

In the case of FVVFLLVTL, the dissociation constant (Kd) was found to be 217 nM.
